Data: paper PMC7812859, “Structure of SARS-CoV-2 ORF8, a rapidly evolving immune evasion protein” (Proceedings of the National Academy of Sciences of the …, 2020)

Target: the molecule itself
Experiment: crystal structure

B1: SeMet-labeled V32M/L84M ORF8 double mutant (domain or fragment)
chain: QECSLQSCTQHQPYMVDDPCPIHFYSKWYIRVGARKSAPLIELCVDEAGSKSPIQYIDIGNYTVSCMPFTINCQEPKLGSLVVRCSFYEDFLEYHDVRVVLDFI
modifications: selenomethionine (SeMet-labeled)
notes: also called ORF8 V32M, L84M double-mutant; SeMet-labeled ORF8 double-mutant protein
- binding result: binds
